Data reported in patent US20110123546A1 (published 2011).

B1: VHH1 (VHH)
VHH: QVQLQDSGGGLVQAGDRLSLSCAASGRTFSSYDMAWFRQAPGKEREFVAAITTSEGTWYGDAGKGRFTIARVNAKNTVYLHMNRLKPEDTAVYYCAASNQGGSLQISTNYNYWGQGTQVTVSS
B2: VHH15 (VHH)
VHH: QVQGAGLWGGLVQLGGSLRLSCAASGFTFGYYAMSWVRQAPGKGLEWVSYINDNGGYTAYTDPVKGRFTISRDNAKNILYLHMNNLKPEDTAVYFCAKWGTDAVSSSRYKSHDYDSRGPGTQVTVSS
B3: VHH2 (VHH)
VHH: QVQLQESGGGLVQAGDSLRLSCAASGRTFSSYAMGWFRQAPGKEREFVAAVSSSNSPWYGDSIKGRSTIHRDNAKNTVYLYMNNLKPEDTAVYYCAADLEGERLGESSEYDYWGQGTQVTVSS
B4: VHH3 (VHH)
VHH: QVQLQESGGGLVQPGGSLRLSCAASGFTFKYYAMSWVRQAPGKGLEWVSYINDNGGYTDYSDSVKGRFTISRDNAKNTLYLHMNRLKPEDTAVYFCAKWDTDAVSSSRYKTHNGDIRGPGTQVTVSS

Target: rhesus rotavirus strain RRV
Assay: cell-based or functional assay

Row | Binder | % infection of MA104 cells relative to irrelevant VHH (NSP4 Western blot densitometry)
1 | B1 | 40%
2 | B2 | 40%
3 | B3 | 40%
4 | B4 | 40%
